molecular target: Q92614; assay: holdup assay; set-up: key: below the threshold = too weak to quantify, mostly under pKd 3.1 to 4; conditions: plain residues with an end cap or a label only (N-terminal biotin on a linker: ttds)

Binder	pKd
SVWLRKETRV [CYSLTR2, Q9NS75]	below the threshold
RSLEEEESQL [GRASP, Q7Z6J2]	below the threshold
PKTPPTDTSV [KIR3DL3, Q8N743]	below the threshold

molecular target: O00560; assay: holdup assay; set-up: key: below the threshold = too weak to quantify, mostly under pKd 3.1 to 4; conditions: plain residues with an end cap or a label only (N-terminal biotin on a linker: ttds)

Binder	pKd
SVWLRKETRV [CYSLTR2, Q9NS75]	below the threshold
RSLEEEESQL [GRASP, Q7Z6J2]	below the threshold
PKTPPTDTSV [KIR3DL3, Q8N743]	below the threshold

molecular target: O15021; assay: holdup assay; set-up: key: below the threshold = too weak to quantify, mostly under pKd 3.1 to 4; conditions: plain residues with an end cap or a label only (N-terminal biotin on a linker: ttds)

Binder	pKd
SVWLRKETRV [CYSLTR2, Q9NS75]	below the threshold
RSLEEEESQL [GRASP, Q7Z6J2]	below the threshold
PKTPPTDTSV [KIR3DL3, Q8N743]	below the threshold

molecular target: Q9NPB6; assay: holdup assay; set-up: key: below the threshold = too weak to quantify, mostly under pKd 3.1 to 4; conditions: plain residues with an end cap or a label only (N-terminal biotin on a linker: ttds)

Binder	pKd
SVWLRKETRV [CYSLTR2, Q9NS75]	below the threshold
RSLEEEESQL [GRASP, Q7Z6J2]	below the threshold
PKTPPTDTSV [KIR3DL3, Q8N743]	below the threshold

molecular target: Q8TEW0; assay: holdup assay; set-up: key: below the threshold = too weak to quantify, mostly under pKd 3.1 to 4; conditions: plain residues with an end cap or a label only (N-terminal biotin on a linker: ttds)

Binder	pKd
SVWLRKETRV [CYSLTR2, Q9NS75]	below the threshold
RSLEEEESQL [GRASP, Q7Z6J2]	below the threshold
PKTPPTDTSV [KIR3DL3, Q8N743]	below the threshold

molecular target: Q8TB45; assay: holdup assay; set-up: key: below the threshold = too weak to quantify, mostly under pKd 3.1 to 4; conditions: plain residues with an end cap or a label only (N-terminal biotin on a linker: ttds)

Binder	pKd
SVWLRKETRV [CYSLTR2, Q9NS75]	below the threshold

molecular target: Q96FS4; assay: holdup assay; set-up: key: below the threshold = too weak to quantify, mostly under pKd 3.1 to 4; conditions: plain residues with an end cap or a label only (N-terminal biotin on a linker: ttds)

Binder	pKd
SVWLRKETRV [CYSLTR2, Q9NS75]	below the threshold
RSLEEEESQL [GRASP, Q7Z6J2]	below the threshold
PKTPPTDTSV [KIR3DL3, Q8N743]	below the threshold

molecular target: Q9H190; assay: holdup assay; set-up: key: below the threshold = too weak to quantify, mostly under pKd 3.1 to 4; conditions: plain residues with an end cap or a label only (N-terminal biotin on a linker: ttds)

Binder	pKd
SVWLRKETRV [CYSLTR2, Q9NS75]	below the threshold
RSLEEEESQL [GRASP, Q7Z6J2]	below the threshold
PKTPPTDTSV [KIR3DL3, Q8N743]	below the threshold

molecular target: Q96HC4; assay: holdup assay; set-up: key: below the threshold = too weak to quantify, mostly under pKd 3.1 to 4; conditions: plain residues with an end cap or a label only (N-terminal biotin on a linker: ttds)

Binder	pKd
SVWLRKETRV [CYSLTR2, Q9NS75]	below the threshold
RSLEEEESQL [GRASP, Q7Z6J2]	below the threshold
PKTPPTDTSV [KIR3DL3, Q8N743]	below the threshold

molecular target: Q70Z35; assay: holdup assay; set-up: key: below the threshold = too weak to quantify, mostly under pKd 3.1 to 4; conditions: plain residues with an end cap or a label only (N-terminal biotin on a linker: ttds)

Binder	pKd
SVWLRKETRV [CYSLTR2, Q9NS75]	below the threshold
RSLEEEESQL [GRASP, Q7Z6J2]	below the threshold
PKTPPTDTSV [KIR3DL3, Q8N743]	below the threshold

molecular target: Q9C0E4; assay: holdup assay; set-up: key: below the threshold = too weak to quantify, mostly under pKd 3.1 to 4; conditions: plain residues with an end cap or a label only (N-terminal biotin on a linker: ttds)

Binder	pKd
SVWLRKETRV [CYSLTR2, Q9NS75]	below the threshold
RSLEEEESQL [GRASP, Q7Z6J2]	below the threshold
PKTPPTDTSV [KIR3DL3, Q8N743]	below the threshold

molecular target: Q8TDM6; assay: holdup assay; set-up: key: below the threshold = too weak to quantify, mostly under pKd 3.1 to 4; conditions: plain residues with an end cap or a label only (N-terminal biotin on a linker: ttds)

Binder	pKd
SVWLRKETRV [CYSLTR2, Q9NS75]	below the threshold

molecular target: Q96JY6; assay: holdup assay; set-up: key: below the threshold = too weak to quantify, mostly under pKd 3.1 to 4; conditions: plain residues with an end cap or a label only (N-terminal biotin on a linker: ttds)

Binder	pKd
SVWLRKETRV [CYSLTR2, Q9NS75]	below the threshold
RSLEEEESQL [GRASP, Q7Z6J2]	below the threshold
PKTPPTDTSV [KIR3DL3, Q8N743]	below the threshold

molecular target: Q13009; assay: holdup assay; set-up: key: below the threshold = too weak to quantify, mostly under pKd 3.1 to 4; conditions: plain residues with an end cap or a label only (N-terminal biotin on a linker: ttds)

Binder	pKd
SVWLRKETRV [CYSLTR2, Q9NS75]	below the threshold
RSLEEEESQL [GRASP, Q7Z6J2]	below the threshold
PKTPPTDTSV [KIR3DL3, Q8N743]	below the threshold

molecular target: Q8IUC4; assay: holdup assay; set-up: key: below the threshold = too weak to quantify, mostly under pKd 3.1 to 4; conditions: plain residues with an end cap or a label only (N-terminal biotin on a linker: ttds)

Binder	pKd
SVWLRKETRV [CYSLTR2, Q9NS75]	below the threshold
RSLEEEESQL [GRASP, Q7Z6J2]	below the threshold
PKTPPTDTSV [KIR3DL3, Q8N743]	below the threshold

molecular target: Q9Y3R0; assay: holdup assay; set-up: key: below the threshold = too weak to quantify, mostly under pKd 3.1 to 4; conditions: plain residues with an end cap or a label only (N-terminal biotin on a linker: ttds)

Binder	pKd
SVWLRKETRV [CYSLTR2, Q9NS75]	below the threshold
RSLEEEESQL [GRASP, Q7Z6J2]	below the threshold
PKTPPTDTSV [KIR3DL3, Q8N743]	below the threshold

molecular target: Q13368; assay: holdup assay; set-up: key: below the threshold = too weak to quantify, mostly under pKd 3.1 to 4; conditions: plain residues with an end cap or a label only (N-terminal biotin on a linker: ttds)

Binder	pKd
SVWLRKETRV [CYSLTR2, Q9NS75]	below the threshold
RSLEEEESQL [GRASP, Q7Z6J2]	below the threshold
PKTPPTDTSV [KIR3DL3, Q8N743]	below the threshold

molecular target: NHERF4_3, Q86UT5; assay: holdup assay; set-up: key: below the threshold = too weak to quantify, mostly under pKd 3.1 to 4; conditions: plain residues with an end cap or a label only (N-terminal biotin on a linker: ttds)
Sequence (Q86UT5 325-412): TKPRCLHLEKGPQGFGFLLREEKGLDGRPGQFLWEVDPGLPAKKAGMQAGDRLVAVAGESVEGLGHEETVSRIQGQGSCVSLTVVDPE

Binder	pKd
SVWLRKETRV [CYSLTR2, Q9NS75]	below the threshold
RSLEEEESQL [GRASP, Q7Z6J2]	below the threshold

molecular target: Q96JB8; assay: holdup assay; set-up: key: below the threshold = too weak to quantify, mostly under pKd 3.1 to 4; conditions: plain residues with an end cap or a label only (N-terminal biotin on a linker: ttds)

Binder	pKd
SVWLRKETRV [CYSLTR2, Q9NS75]	below the threshold
RSLEEEESQL [GRASP, Q7Z6J2]	below the threshold
PKTPPTDTSV [KIR3DL3, Q8N743]	below the threshold

molecular target: O75970; assay: holdup assay; set-up: key: below the threshold = too weak to quantify, mostly under pKd 3.1 to 4; conditions: plain residues with an end cap or a label only (N-terminal biotin on a linker: ttds)

Binder	pKd
SVWLRKETRV [CYSLTR2, Q9NS75]	below the threshold
RSLEEEESQL [GRASP, Q7Z6J2]	below the threshold
PKTPPTDTSV [KIR3DL3, Q8N743]	below the threshold

molecular target: Q6ZWJ1; assay: holdup assay; set-up: key: below the threshold = too weak to quantify, mostly under pKd 3.1 to 4; conditions: plain residues with an end cap or a label only (N-terminal biotin on a linker: ttds)

Binder	pKd
SVWLRKETRV [CYSLTR2, Q9NS75]	below the threshold
RSLEEEESQL [GRASP, Q7Z6J2]	below the threshold
PKTPPTDTSV [KIR3DL3, Q8N743]	below the threshold

molecular target: Q12923; assay: holdup assay; set-up: key: below the threshold = too weak to quantify, mostly under pKd 3.1 to 4; conditions: plain residues with an end cap or a label only (N-terminal biotin on a linker: ttds)

Binder	pKd
SVWLRKETRV [CYSLTR2, Q9NS75]	below the threshold
RSLEEEESQL [GRASP, Q7Z6J2]	below the threshold
PKTPPTDTSV [KIR3DL3, Q8N743]	below the threshold

molecular target: Q9UMS6; assay: holdup assay; set-up: key: below the threshold = too weak to quantify, mostly under pKd 3.1 to 4; conditions: plain residues with an end cap or a label only (N-terminal biotin on a linker: ttds)

Binder	pKd
SVWLRKETRV [CYSLTR2, Q9NS75]	below the threshold
RSLEEEESQL [GRASP, Q7Z6J2]	below the threshold
PKTPPTDTSV [KIR3DL3, Q8N743]	below the threshold

molecular target: Q9ULJ8; assay: holdup assay; set-up: key: below the threshold = too weak to quantify, mostly under pKd 3.1 to 4; conditions: plain residues with an end cap or a label only (N-terminal biotin on a linker: ttds)

Binder	pKd
SVWLRKETRV [CYSLTR2, Q9NS75]	below the threshold
RSLEEEESQL [GRASP, Q7Z6J2]	below the threshold
PKTPPTDTSV [KIR3DL3, Q8N743]	below the threshold

molecular target: Q9P227; assay: holdup assay; set-up: key: below the threshold = too weak to quantify, mostly under pKd 3.1 to 4; conditions: plain residues with an end cap or a label only (N-terminal biotin on a linker: ttds)

Binder	pKd
SVWLRKETRV [CYSLTR2, Q9NS75]	below the threshold
RSLEEEESQL [GRASP, Q7Z6J2]	below the threshold
PKTPPTDTSV [KIR3DL3, Q8N743]	below the threshold
